Assay results from publication PMC6265447, “The bacterial Mre11–Rad50 homolog SbcCD cleaves opposing strands of DNA by two chemically distinct nuclease reactions” (Nucleic Acids Research, 2018).

How the values were obtained:
[1] = target: SbcC;SbcD H84Q H84Q (Escherichia coli;Escherichia coli) (UniProt P13458+P0AG76); assay: fluorescence anisotropy; conditions: 5 mM Mg2+, 1 mM Mn2+; 25 mM Tris pH 7.5, 50 mM KCl, 5 mM MgCl2, 1 mM MnCl2, 1 mM DTT, 1 mM ATP where stated; 5 nM DNA, 2-1000 nM SbcCD, 20 min at 25 C
[2] = system: T1, Nc1ncnc2c1ncn2[C@@H]1O[C@H](COP(=O)(O)OP(=O)(O)OP(=O)(O)O)[C@@H](O)[C@H]1O; assay: NADH-coupled (PK/LDH) ATPase assay, Michaelis-Menten fit; assay type: biochemical, Escherichia coli; conditions: dsDNA present, 5 mM MgCl2, 1 mM MnCl2, 50 mM KCl, 25 mM Tris pH 7.5, 37°C
T1 construct: full-length SbcC (pET28) and SbcD with C-terminal His6 (pET21b), co-expressed in E. coli BL21(DE3); SbcC2-SbcD2 heterotetramer; printed 4M0V is the SbcD dimer structure only; with Nuclease SbcCD subunit D

Substance	Kd [1] [nM]	Km [2] [µM]
60 bp DNA, AT-rich positions 15-29	45	
60 bp DNA, GC-rich positions 15-29	132	
SbcCD (Escherichia coli K-12)		46 ± 6
